Here are results for three molecules from article PMC8988209, “AAV‐mediated delivery of an anti‐BACE1 VHH alleviates pathology in an Alzheimer's disease model” (EMBO Molecular Medicine, 2022).

The target of experiment [1] is human BACE1 (amino acids 1–460) fused to the constant region of human IgG1 (hBACE1:Fc), wild type (human) (UniProt P56817).
The target of experiment [2] is purified human BACE1 ectodomain (human) (UniProt P56817). Put plainly: SPR; BIAcore; 2,500 RU purified BACE1 ectodomain amine-coupled to a CM5 chip; VHHs injected at 0–500 nM, 25°C; citrate buffer with 150 mM NaCl, 3.5 mM EDTA, 0.005% Tween-20 at pH 4.5. A general note: SPR reads the build-up and loss of mass on a sensor chip optically.
Chain of purified human BACE1 ectodomain (human) (P56817 22-457): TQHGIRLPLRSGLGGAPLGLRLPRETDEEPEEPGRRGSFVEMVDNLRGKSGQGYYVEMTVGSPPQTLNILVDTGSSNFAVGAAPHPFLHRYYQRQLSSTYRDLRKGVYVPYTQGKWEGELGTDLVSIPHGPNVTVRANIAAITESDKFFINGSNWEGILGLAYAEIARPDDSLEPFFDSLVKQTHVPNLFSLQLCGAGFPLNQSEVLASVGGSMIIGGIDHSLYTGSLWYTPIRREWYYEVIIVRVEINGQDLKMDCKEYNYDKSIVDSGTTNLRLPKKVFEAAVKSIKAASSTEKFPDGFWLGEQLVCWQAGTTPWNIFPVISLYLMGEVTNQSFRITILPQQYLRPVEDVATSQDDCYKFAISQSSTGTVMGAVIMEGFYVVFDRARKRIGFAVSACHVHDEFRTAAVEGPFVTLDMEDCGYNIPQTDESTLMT
Experiment [3] has the same target. The experiment in a line: SPR; BIAcore; 2,500 RU purified BACE1 ectodomain amine-coupled to a CM5 chip; VHHs injected at 0–500 nM, 30 μl/min, 25°C; HBS buffer (10 mM Hepes (pH 7.5), 150 mM NaCl, 3.5 mM EDTA, 0.005% Tween-20); table gives pH 7.0.
Experiment [4] addresses T1, mouse BACE2 (Mus musculus, UniProt Q9JL18).
T1 construct: mouse BACE2; also called mBACE2
The experiment in a line: BLI; OctetRED96; biotinylated human or mouse BACE1 immobilised at 1 μg/ml on streptavidin biosensors; serial dilutions of VHH-B9 (table: Conc. 100 nM); Kinetic Buffer, 25°C, 1,000 rpm; 1:1 fitting model. The note with it: both partners purified. On the technique in general: BLI is a label-free optical method that tracks binding on a fibre tip over time.

Experiment [5] deals with T2, biotinylated mouse BACE1 (Mus musculus, UniProt P56818, biotin). The experiment in a line: cell-based or functional assay.
T2 sequence (P56818 46-501): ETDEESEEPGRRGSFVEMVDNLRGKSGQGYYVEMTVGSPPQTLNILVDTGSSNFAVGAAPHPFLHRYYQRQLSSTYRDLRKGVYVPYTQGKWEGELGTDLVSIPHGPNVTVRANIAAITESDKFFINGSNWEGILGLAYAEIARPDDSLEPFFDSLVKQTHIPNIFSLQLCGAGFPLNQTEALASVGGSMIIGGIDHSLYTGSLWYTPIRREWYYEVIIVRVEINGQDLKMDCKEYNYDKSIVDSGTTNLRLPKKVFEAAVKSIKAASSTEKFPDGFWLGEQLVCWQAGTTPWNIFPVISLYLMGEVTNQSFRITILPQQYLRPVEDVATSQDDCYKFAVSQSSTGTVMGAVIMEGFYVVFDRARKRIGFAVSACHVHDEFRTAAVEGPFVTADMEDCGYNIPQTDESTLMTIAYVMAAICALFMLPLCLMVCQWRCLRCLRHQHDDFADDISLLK
Experiment [6] has as its target human BACE1 (amino acids 1–460) fused to the constant region of human IgG1 (hBACE1:Fc), wild type (Homo sapiens, UniProt P56817). The experiment in a line: cell-based or functional assay.
In experiment [7] the target is T3, biotinylated human BACE1 (Homo sapiens, UniProt P56817, biotin).
T3 construct: human BACE1, biotinylated and immobilised on streptavidin biosensors; Probably an ectodomain preparation; also called hBACE1; biotinylated BACE1
T3 sequence (P56817 46-501): as the sequence (P56818 46-501) above, with S6P, I162V, I165L, T180S, A182V, V340I, A393L, H443Q counted along it
The experiment in a line: BLI; OctetRED96; biotinylated human or mouse BACE1 immobilised at 1 μg/ml on streptavidin biosensors; serial dilutions of VHH-B9 (table: Conc. 100 nM); Kinetic Buffer, 25°C, 1,000 rpm; 1:1 fitting model. The note with it: both partners purified.

Experiment [8] deals with T2, biotinylated mouse BACE1. Described as above. The note with it: both partners purified.

Chain of human BACE1 (amino acids 1–460) fused to the constant region of human IgG1 (hBACE1:Fc), wild type (human) (P56817 22-460): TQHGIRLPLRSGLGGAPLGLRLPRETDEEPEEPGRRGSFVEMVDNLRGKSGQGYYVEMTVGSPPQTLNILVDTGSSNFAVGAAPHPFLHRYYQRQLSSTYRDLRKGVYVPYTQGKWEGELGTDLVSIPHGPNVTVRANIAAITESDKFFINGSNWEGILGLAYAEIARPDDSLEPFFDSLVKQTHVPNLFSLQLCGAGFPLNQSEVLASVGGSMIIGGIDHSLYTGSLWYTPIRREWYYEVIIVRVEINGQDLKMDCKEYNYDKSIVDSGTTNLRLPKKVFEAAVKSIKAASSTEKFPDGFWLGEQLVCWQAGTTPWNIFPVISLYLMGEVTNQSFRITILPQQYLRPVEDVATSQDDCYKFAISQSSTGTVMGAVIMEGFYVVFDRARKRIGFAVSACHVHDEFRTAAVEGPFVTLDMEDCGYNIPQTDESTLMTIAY
Chain of human BACE1 (amino acids 1–460) fused to the constant region of human IgG1 (hBACE1:Fc), wild type (P56817 22-460): as above
T1 sequence (Q9JL18 20-514): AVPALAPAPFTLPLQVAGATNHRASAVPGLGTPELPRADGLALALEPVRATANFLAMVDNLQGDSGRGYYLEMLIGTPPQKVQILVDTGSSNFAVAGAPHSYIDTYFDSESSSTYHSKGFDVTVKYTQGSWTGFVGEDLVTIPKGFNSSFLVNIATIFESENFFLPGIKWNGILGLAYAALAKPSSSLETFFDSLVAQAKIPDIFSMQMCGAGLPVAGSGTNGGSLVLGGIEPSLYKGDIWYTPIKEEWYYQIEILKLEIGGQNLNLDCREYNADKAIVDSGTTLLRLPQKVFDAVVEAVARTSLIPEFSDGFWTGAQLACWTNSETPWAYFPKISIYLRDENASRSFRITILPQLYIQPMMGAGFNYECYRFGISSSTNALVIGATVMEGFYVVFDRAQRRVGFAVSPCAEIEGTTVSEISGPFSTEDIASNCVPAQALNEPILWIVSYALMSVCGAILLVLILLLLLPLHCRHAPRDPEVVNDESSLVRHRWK

B1: VHH‐10C4 (VHH)
VHH: QVQLQESGGGSVQAGGFLRLSCAASGYTYSTCSMAWYRQAPGKERELVSSIRNDGSTAYADSVKGRFTISQDNAKNTVYLQMNSLKPEDTAMYYCNIRIGVGPGGTCSIYAPYWGEGTQVTVSS
In general, Kd refers to the concentration at which binding is half-saturated. A higher Kd goes with lower affinity. What is called koff is a measure of how fast the partners let go of each other. A lower koff goes with a long-lived complex. For orientation: kon means a measure of how fast the partners come together. A high value points to fast association. Turning to B1, in experiment [1], the EC50 of inhibition of hBACE1:Fc in the in vitro APP cleavage assay (MBP-C125sw substrate, cleavage product by ELISA) stood at 112 nM. In experiment [2], this molecule came in with a Kd of 27.7 nM, a koff of 0.0125 s⁻¹ and a kon of 451000 M⁻¹ s⁻¹. In experiment [3], this molecule showed a Kd of 74.7 nM, a koff of 0.00792 s⁻¹ and a kon of 106000 M⁻¹ s⁻¹.

B2: VHH‐4A2 (VHH)
VHH: QVQLQESGGGLVQPGGSLRLSCAASGFTFETQYMTWVRQAPGKGPEYVSSINSGGTIKYYANSSVKGRFTISRDNAKNTLYLQMNNLRPEDTAIYYCQLGQWAGVGAASSRGQGTQVTVSS
The molecule B2 showed an EC50 of inhibition of hBACE1:Fc in the in vitro APP cleavage assay (MBP-C125sw substrate, cleavage product by ELISA) in experiment [1] of 789 nM. Further, in experiment [2], the Kd was 21.2 nM, the koff worked out at 0.00841 s⁻¹ and the kon worked out at 397000 M⁻¹ s⁻¹. Moreover, in experiment [3], the Kd stood at 48.2 nM, the koff is 0.0231 s⁻¹ and the kon is 479000 M⁻¹ s⁻¹.

B3: VHH‐B9 (VHH)
VHH: DVQLQESGGGSVQAGGSLRLSCAASEYTYGYCSMGWYRQAPGKERELVSTITSDGSTSYVDSVKGRFTISQDNAKNTVYLQMNSLKPEDTAKYYCYTKTCANKLGAKFISWGQGTQVTVSS
notes: Recombinant form used in SPR, BLI, dot blot (detected by anti-His) and the cleavage assays; source: E. coli WK6 (pHEN6), periplasmic extract, purified (Ni-NTA, Superdex-75); not shown: His6, C-terminal, kept
For the molecule B3, the binding result in experiment [4] is “no binding (tested: 100 nM)”. Moreover, the Kd in experiment [2] is 1.9 nM; in experiment [3], 3.7 nM; in experiment [7] it was 2.9 nM; in experiment [8], 3.2 nM. In addition, the koff in experiment [2] stood at 0.00013 s⁻¹; in experiment [3], 0.00098 s⁻¹; in experiment [7], 0.000443 s⁻¹; in experiment [8], 0.00072 s⁻¹. The kon in experiment [2] amounted to 662000 M⁻¹ s⁻¹; in experiment [3], 267000 M⁻¹ s⁻¹; in experiment [7], 153000 M⁻¹ s⁻¹; in experiment [8], 224000 M⁻¹ s⁻¹. Besides, the “EC50 of lowering Aβ1-40 (ELISA of conditioned medium) in primary mouse neurons expressing human APP695, VHH-B9 from 10 µM to 0.7 nM” value in experiment [5] was 85.4 nM. In experiment [6], the “EC50 of inhibition of hBACE1:Fc in the in vitro APP cleavage assay (MBP-C125sw substrate, cleavage product by ELISA)” value is 99.2 nM.
